# Results from paper PMC4772129, “nagZ Triggers Gonococcal Biofilm Disassembly” (Scientific Reports, 2016).
# System: CC(=O)N[C@H]1[C@H](Oc2ccc([N+](=O)[O-])cc2)O[C@H](CO)[C@@H](O)[C@@H]1O
# Assay: purified protein
# Conditions: KPO4 buffer 200 mM, pH 8.0, 37 °C (standard assay)
substance,measurement,value
NagZ (Neisseria gonorrhoeae FA 1090),Km,3.2 mM
